# Results: patent publication US10428140B2, “Anti-EphA4 antibody” (EISAI R&D MANAGEMENT CO., LTD., priority 2015, dated 2019)
# T1: human EphA3 (Homo sapiens, UniProt P29320)
# T1 construct: a protein of the extracellular region of each human Eph receptor fused with the SEAP protein and the His tag; made in house; host or cells: Expi293F cells (culture supernatant)
# T1 sequence (P29320 21-541 limits assumed): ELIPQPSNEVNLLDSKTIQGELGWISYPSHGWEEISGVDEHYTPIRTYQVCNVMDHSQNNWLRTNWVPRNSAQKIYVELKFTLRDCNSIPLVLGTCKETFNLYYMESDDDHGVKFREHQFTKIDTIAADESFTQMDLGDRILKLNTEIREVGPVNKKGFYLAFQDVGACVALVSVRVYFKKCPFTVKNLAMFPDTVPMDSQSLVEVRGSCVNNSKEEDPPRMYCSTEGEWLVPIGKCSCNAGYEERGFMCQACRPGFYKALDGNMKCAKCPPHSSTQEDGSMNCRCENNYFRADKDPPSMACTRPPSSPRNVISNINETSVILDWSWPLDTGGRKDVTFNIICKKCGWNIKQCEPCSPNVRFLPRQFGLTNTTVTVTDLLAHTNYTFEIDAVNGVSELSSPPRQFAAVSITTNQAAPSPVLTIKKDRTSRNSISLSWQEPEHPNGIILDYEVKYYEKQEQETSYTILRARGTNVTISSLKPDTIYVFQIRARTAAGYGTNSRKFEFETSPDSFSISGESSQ
# T2: human EphB3 (Homo sapiens, UniProt P54753)
# T2 construct: a protein of the extracellular region of each human Eph receptor fused with the SEAP protein and the His tag; made in house; host or cells: Expi293F cells
# T2 sequence (P54753 34-559 limits assumed): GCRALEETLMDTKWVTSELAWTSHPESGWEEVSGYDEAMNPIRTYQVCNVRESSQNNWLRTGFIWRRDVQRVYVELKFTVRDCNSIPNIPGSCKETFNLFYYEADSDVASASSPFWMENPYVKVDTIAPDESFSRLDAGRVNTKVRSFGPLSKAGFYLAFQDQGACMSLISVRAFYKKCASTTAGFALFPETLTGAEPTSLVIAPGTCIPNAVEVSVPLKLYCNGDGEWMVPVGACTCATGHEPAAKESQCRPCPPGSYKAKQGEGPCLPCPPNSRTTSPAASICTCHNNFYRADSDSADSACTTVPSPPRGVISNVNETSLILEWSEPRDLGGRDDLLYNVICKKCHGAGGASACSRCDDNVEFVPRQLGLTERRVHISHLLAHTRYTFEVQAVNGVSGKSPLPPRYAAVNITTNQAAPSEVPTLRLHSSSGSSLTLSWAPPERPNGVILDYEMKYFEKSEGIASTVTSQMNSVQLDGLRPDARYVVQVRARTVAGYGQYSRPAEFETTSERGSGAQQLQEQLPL
# T3: human EphB2 (Homo sapiens, UniProt P29323)
# T3 construct: a protein of the extracellular region of each human Eph receptor fused with the SEAP protein and the His tag; made in house; host or cells: Expi293F cells
# T3 sequence (P29323 19-543 limits assumed): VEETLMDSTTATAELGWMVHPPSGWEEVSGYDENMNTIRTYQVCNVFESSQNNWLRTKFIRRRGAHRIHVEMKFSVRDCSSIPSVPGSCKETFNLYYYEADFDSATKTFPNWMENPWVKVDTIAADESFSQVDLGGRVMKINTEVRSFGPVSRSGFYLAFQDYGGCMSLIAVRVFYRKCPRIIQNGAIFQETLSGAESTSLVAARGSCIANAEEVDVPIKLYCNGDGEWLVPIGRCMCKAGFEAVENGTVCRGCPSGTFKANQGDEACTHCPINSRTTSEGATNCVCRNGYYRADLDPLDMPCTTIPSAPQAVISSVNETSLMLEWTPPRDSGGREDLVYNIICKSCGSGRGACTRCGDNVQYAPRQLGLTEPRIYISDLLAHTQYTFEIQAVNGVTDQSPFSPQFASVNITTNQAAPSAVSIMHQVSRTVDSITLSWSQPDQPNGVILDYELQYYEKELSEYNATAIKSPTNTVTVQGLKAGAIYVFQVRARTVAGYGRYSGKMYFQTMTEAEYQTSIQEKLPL
# Legend:
# Assay in all cases: Selectivity ELISA of humanized antibodies for human Eph receptor
# Assay type in all cases: binding
# Conditions in all cases: coated protein 1 nM
# SEAP-His = SEAP-His (Homo sapiens, UniProt P05187)
# In short: (§1)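 Extracellular domains of human Eph receptors fused to SEAP-His were expressed in Expi293F cells for 5 days and captured from supernatant (1 nM final) on anti-His-coated plates. Humanized anti-EphA4 antibodies were incubated 1 h at room temperature, then HRP anti-IgG secondary, TMB substrate, and absorbance at 450 nm.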
# human EphA3 = target: T1, human EphA3
# In short: as §1
# human EphB3 = target: T2, human EphB3
# In short: as §1
# human EphB2 = target: T3, human EphB2
# In short: as §1
# Chain of SEAP-His (P05187 23-511 limits assumed): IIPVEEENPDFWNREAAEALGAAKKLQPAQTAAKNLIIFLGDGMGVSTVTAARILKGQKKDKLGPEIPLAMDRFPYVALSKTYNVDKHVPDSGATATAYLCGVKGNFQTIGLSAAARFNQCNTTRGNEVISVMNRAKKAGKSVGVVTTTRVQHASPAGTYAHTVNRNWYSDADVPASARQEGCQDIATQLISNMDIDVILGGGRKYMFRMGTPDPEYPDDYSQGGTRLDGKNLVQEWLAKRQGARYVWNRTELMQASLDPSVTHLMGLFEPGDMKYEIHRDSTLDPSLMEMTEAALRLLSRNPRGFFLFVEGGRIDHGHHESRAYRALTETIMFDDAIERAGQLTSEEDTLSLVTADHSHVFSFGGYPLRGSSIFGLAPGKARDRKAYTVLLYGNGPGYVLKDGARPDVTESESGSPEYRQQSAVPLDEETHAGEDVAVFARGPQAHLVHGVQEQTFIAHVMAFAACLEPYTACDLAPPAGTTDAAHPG
"SEAP-His: absorbance at 450 nm, percentage with respect to hEphA4-SEAP-His as 100% (SEAP-His)","hEphA3-SEAP-: absorbance at 450 nm, percentage with respect to hEphA4-SEAP-His as 100% (human EphA3)","hEphB3-SEAP-: absorbance at 450 nm, percentage with respect to hEphA4-SEAP-His as 100% (human EphB3)","hEphB2-SEAP-: absorbance at 450 nm, percentage with respect to hEphA4-SEAP-His as 100% (human EphB2)",Molecule
5.1%,4.9%,5.1%,5.2%,"138 (antibody, V domains shown, synthetic humanized antibody heavy chain variable region sequence; synthetic humanized antibody light chain variable region sequence) VH: QIQLVQSGSELKKPGASVKVSCKASGYTFTDYSMHWVRQAPGQGLKWMGWINTETGEPTYAQGFTGRFVFSLDTSVSTAYLQISSLKAEDTAVYYCARIPLYYYGSRYWYFDVWGQGTTVTVSS VL: DIQMTQSPSSLSASVGDRVTITCRASENIYRNLAWYQQKPGKAPKLLVYAATNLADGVPSRFSGSGSGTDYTLTISSLQPEDFATYYCQHFWGTPWTFGQGTKVEIK"
5.8%,5.5%,5.6%,5.6%,"142 (antibody, V domains shown, synthetic humanized antibody heavy chain variable region sequence; synthetic humanized antibody light chain variable region sequence) VH: QVQLVQSGSELKKPGASVKVSCKASGYTFTDYSMHWVRQAPGQGLKWMGWINTETGEPTYADDFKGRFVFSLDTSVSTAYLQISSLKAEDTAVYYCARIPLYYYGSRYWYFDVWGQGTTVTVSS VL: DIQMTQSPSSLSASVGDRVTITCRASENIYRNLAWYQQKPGKAPKLLVYAATNLADGVPSRFSGSGSGTDYTLTISSLQPEDFATYYCQHFWGTPWTFGQGTKVEIK"
5.0%,5.3%,5.2%,5.2%,"141 (antibody, V domains shown, synthetic humanized antibody heavy chain variable region sequence; synthetic humanized antibody light chain variable region sequence) VH: QVQLVQSGSELKKPGASVKVSCKASGYTFTDYSMHWVRQAPGQGLEWMGWINTETGEPTYADDFKGRFVFSLDTSVSTAYLQISSLKAEDTAVYYCARIPLYYYGSRYWYFDVWGQGTTVTVSS VL: DIQMTQSPSSLSASVGDRVTITCRASENIYRNLAWYQQKPGKAPKLLVYAATNLADGVPSRFSGSGSGTDYTLTISSLQPEDFATYYCQHFWGTPWTFGQGTKVEIK"
6.3%,6.2%,6.2%,6.2%,"154 (antibody, V domains shown, synthetic humanized antibody heavy chain variable region sequence; synthetic humanized antibody light chain variable region sequence) VH: QVQLVQSGSELKKPGASVKVSCKASGYTFTDYSMHWVRQAPGQGLEWMGWINTETGEPTYADDFKGRFVFSLDTSVSTAYLQISSLKAEDTAVYYCARIPLYYYGSRYWYFDVWGQGTTVTVSS VL: DIQMTQSPSSLSASVGDRVTITCRASENIYRNLAWYQQKPGKAPKLLLYAATNLADGVPSRFSGSGSGTDYTLTISSLQSEDFATYYCQHFWGTPWTFGQGTKVEIK"
5.9%,6.1%,5.9%,5.9%,"153 (antibody, V domains shown, synthetic humanized antibody heavy chain variable region sequence; synthetic humanized antibody light chain variable region sequence) VH: QVQLVQSGSELKKPGASVKVSCKASGYTFTDYSMHWVRQAPGQGLKWMGWINTETGEPTYAQGFTGRFVFSLDTSVSTAYLQISSLKAEDTAVYYCARIPLYYYGSRYWYFDVWGQGTTVTVSS VL: DIQMTQSPSSLSASVGDRVTITCRASENIYRNLAWYQQKPGKAPKLLLYAATNLADGVPSRFSGSGSGTDYTLTISSLQSEDFATYYCQHFWGTPWTFGQGTKVEIK"
6.3%,5.6%,5.9%,5.8%,"143 (antibody, V domains shown, synthetic humanized antibody heavy chain variable region sequence; synthetic humanized antibody light chain variable region sequence) VH: QIQLVQSGSELKKPGASVKVSCKASGYTFTDYSMHWVRQAPGQGLKWMGWINTETGEPTYADDFKGRFVFSLDTSVSTAYLQISSLKAEDTAVYYCARIPLYYYGSRYWYFDVWGQGTTVTVSS VL: DIQMTQSPSSLSASVGDRVTITCRASENIYRNLAWYQQKPGKAPKLLVYAATNLADGVPSRFSGSGSGTDYTLTISSLQPEDFATYYCQHFWGTPWTFGQGTKVEIK"
6.8%,6.9%,7.3%,7.0%,"151 (antibody, V domains shown, synthetic humanized antibody heavy chain variable region sequence; synthetic humanized antibody light chain variable region sequence) VH: QIQLVQSGSELKKPGASVKVSCKASGYTFTDYSMHWVRQAPGQGLKWMGWINTETGEPTYAQGFTGRFVFSLDTSVSTAYLQISSLKAEDTAVYYCARIPLYYYGSRYWYFDVWGQGTTVTVSS VL: DIQMTQSPSSLSASVGDRVTITCRASENIYRNLAWYQQKPGKAPKLLLYAATNLADGVPSRFSGSGSGTDYTLTISSLQSEDFATYYCQHFWGTPWTFGQGTKVEIK"
5.4%,5.8%,6.0%,5.8%,"152 (antibody, V domains shown, synthetic humanized antibody heavy chain variable region sequence; synthetic humanized antibody light chain variable region sequence) VH: QVQLVQSGSELKKPGASVKVSCKASGYTFTDYSMHWVRQAPGQGLEWMGWINTETGEPTYAQGFTGRFVFSLDTSVSTAYLQISSLKAEDTAVYYCARIPLYYYGSRYWYFDVWGQGTTVTVSS VL: DIQMTQSPSSLSASVGDRVTITCRASENIYRNLAWYQQKPGKAPKLLLYAATNLADGVPSRFSGSGSGTDYTLTISSLQSEDFATYYCQHFWGTPWTFGQGTKVEIK"
